{"source": "patent US20230329245A1", "about": "“COMPOSITIONS AND METHODS OF USE THEREOF” (Curie Co. Inc., priority 2020, published 2023)", "molecules": {"B1": {"name": "Tgase (SEQ ID NO: 6): variant Streptomyces mobaraensis transglutaminase (SEQ ID NO:2) with N-terminal Methionine, C-terminal peptide linker and hexa-His-Tag (protein)", "chain": "MDPDDRVTPPAEPLDRMPDPYRPSYGRAETVVNNYIRKWQQVYSHRDGRKQQMTEEQREWLSYGCVGVTWVNSGQYPTNRLAFASFDEDRFKNELKNGRPRSGETRAEFEGRVAKESFDEEKGFQRAREVASVMNRALENAHDESAYLDNLKKELANGNDALRNEDARSPFYSALRNTPSFKERNGGNHDPSRMKAVIYSKHFWSGQDRSSSADKRKYGDPDAFRPAPGTGLVDMSRDRNIPRSPTSPGEGFVNFDYGWFGAQTEADADKTVWTHGNHYHAPNGSLGAMHVYESKFRNWSEGYSDFDRGAYVITFIPKSWNTAPDKVKQGWPLEHHHHHH"}}, "tested_on": "A. brasiliensis ATCC 16404", "assay": "Minimum fungicidal concentration (MFC), A. brasiliensis", "assay_type": "cell-based", "conditions": "no colonies recovered on SDA, duplicate", "procedure": "Minimum fungicidal concentration (MFC) was determined by plating 10 microliters of liquid from each MFC test solution on the appropriate agar media for each test strain. The liquid was allowed to air dry in a biosafety cabinet, then the agar plates were incubated under the appropriate conditions: A. brasiliensis and C. albicans were grown on Sabouraud Dextrose Agar (SDA) plates. A. brasiliensis was grown at 25° C. for 5 to 7 days, while C. albicans was grown at 37° C. for 24 to 48 hours. Colony formation was then assessed. MFC is defined as the lowest concentration of the Tgase (SEQ ID NO:6) in which no colonies were recovered.", "data": [{"molecule": "B1", "values": [{"measurement": "MFC", "result": 125, "unit": "µg/mL"}]}]}
